{"source": "patent US20140274782A1", "about": "“AFFINITY REAGENTS AND METHODS FOR DETECTION, PURIFICATION, AND PROTEOMIC ANALYSIS OF METHYLATED PROTEINS” (The Board of Trustees of the Leland Stanford Junior …, priority 2013, published 2014)", "key": {"[1]": {"target": "LARP6, G9a-methylated (human) (UniProt Q9BRS8)", "assay": "ProtoArray, G9a array SNR minus GST array SNR"}, "[2]": {"target": "HIC2, G9a-methylated (human) (UniProt Q96JB3)", "assay": "ProtoArray, G9a array SNR minus GST array SNR"}, "[3]": {"target": "TMEM97, G9a-methylated (human) (UniProt Q5BJF2)", "assay": "ProtoArray, G9a array SNR minus GST array SNR"}, "[4]": {"target": "SERPINB2, G9a-methylated (human) (UniProt P05120)", "sequence (P05120 whole entry)": "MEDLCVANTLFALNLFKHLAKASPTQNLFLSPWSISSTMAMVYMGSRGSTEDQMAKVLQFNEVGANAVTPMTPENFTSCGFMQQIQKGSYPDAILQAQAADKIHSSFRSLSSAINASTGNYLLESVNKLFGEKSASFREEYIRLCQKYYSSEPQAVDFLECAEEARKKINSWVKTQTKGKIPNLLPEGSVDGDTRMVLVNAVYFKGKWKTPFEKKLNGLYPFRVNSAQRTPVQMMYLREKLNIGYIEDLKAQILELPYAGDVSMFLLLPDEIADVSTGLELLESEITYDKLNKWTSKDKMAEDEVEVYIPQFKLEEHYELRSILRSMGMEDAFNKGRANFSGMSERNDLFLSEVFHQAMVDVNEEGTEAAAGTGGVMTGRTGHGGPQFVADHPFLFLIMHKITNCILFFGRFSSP", "assay": "ProtoArray, G9a array SNR minus GST array SNR"}, "[5]": {"target": "TEAD4, G9a-methylated (human) (UniProt Q15561)", "assay": "ProtoArray, G9a array SNR minus GST array SNR"}, "[6]": {"target": "GFOD1, G9a-methylated (human) (UniProt Q9NXC2)", "sequence (Q9NXC2 22-390 limits assumed)": "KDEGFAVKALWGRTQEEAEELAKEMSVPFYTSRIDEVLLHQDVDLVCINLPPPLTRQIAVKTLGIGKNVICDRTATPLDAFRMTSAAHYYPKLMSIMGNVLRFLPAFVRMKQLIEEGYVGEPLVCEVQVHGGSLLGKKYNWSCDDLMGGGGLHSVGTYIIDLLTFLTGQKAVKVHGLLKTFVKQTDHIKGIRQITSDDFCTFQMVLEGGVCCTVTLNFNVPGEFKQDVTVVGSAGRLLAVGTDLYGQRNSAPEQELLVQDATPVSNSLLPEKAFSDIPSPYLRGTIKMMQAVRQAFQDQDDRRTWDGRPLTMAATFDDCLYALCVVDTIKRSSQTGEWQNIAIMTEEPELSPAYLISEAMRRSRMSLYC", "assay": "ProtoArray, G9a array SNR minus GST array SNR"}, "[7]": {"target": "TTC27, G9a-methylated (human) (UniProt Q6P3X3)", "assay": "ProtoArray, G9a array SNR minus GST array SNR"}, "[8]": {"target": "PPARG, G9a-methylated (human) (UniProt P37231)", "assay": "ProtoArray, G9a array SNR minus GST array SNR"}, "[9]": {"target": "TGDS, G9a-methylated (human) (UniProt O95455)", "sequence (O95455 whole entry)": "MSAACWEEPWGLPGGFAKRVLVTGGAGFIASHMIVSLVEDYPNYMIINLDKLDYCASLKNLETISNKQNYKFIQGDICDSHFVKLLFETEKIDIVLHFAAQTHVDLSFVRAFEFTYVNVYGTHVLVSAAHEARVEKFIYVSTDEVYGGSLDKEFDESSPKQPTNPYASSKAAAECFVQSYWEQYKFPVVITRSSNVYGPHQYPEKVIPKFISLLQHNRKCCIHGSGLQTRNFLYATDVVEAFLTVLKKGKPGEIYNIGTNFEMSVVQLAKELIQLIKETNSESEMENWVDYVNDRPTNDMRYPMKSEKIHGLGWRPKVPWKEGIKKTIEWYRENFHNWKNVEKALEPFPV", "assay": "ProtoArray, G9a array SNR minus GST array SNR"}, "[10]": {"target": "CDK10, G9a-methylated (human) (UniProt Q15131)", "assay": "ProtoArray, G9a array SNR minus GST array SNR"}, "[11]": {"target": "PPIL5, G9a-methylated (human) (UniProt Q96L50)", "assay": "ProtoArray, G9a array SNR minus GST array SNR"}, "[12]": {"target": "VPS29, G9a-methylated (human) (UniProt Q9UBQ0)", "assay": "ProtoArray, G9a array SNR minus GST array SNR"}, "[13]": {"target": "TMEM32, G9a-methylated (human) (UniProt Q8N4V1)", "sequence (Q8N4V1 whole entry)": "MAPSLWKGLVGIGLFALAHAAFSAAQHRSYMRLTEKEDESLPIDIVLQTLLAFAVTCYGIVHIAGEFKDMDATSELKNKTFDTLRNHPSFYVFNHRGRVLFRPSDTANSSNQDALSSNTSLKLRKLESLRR", "assay": "ProtoArray, G9a array SNR minus GST array SNR"}, "[14]": {"target": "BLCAP, G9a-methylated (human) (UniProt P62952)", "sequence (P62952 whole entry)": "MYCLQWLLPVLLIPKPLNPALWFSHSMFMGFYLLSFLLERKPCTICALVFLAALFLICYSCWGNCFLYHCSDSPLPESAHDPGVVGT", "assay": "ProtoArray, G9a array SNR minus GST array SNR"}, "[15]": {"target": "SCGB2A2, G9a-methylated (human) (UniProt Q13296)", "assay": "ProtoArray, G9a array SNR minus GST array SNR"}, "[16]": {"target": "RDH11, G9a-methylated (human) (UniProt Q8TC12)", "assay": "ProtoArray, G9a array SNR minus GST array SNR"}, "[17]": {"target": "Magmas, G9a-methylated (human) (UniProt Q9Y3D7)", "sequence (Q9Y3D7 whole entry)": "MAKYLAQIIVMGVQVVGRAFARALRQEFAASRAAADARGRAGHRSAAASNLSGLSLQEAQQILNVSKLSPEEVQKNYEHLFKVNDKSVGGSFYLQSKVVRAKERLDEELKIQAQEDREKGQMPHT", "assay": "ProtoArray, G9a array SNR minus GST array SNR"}, "[18]": {"target": "ZRANB1, G9a-methylated (human) (UniProt Q9UGI0)", "sequence (Q9UGI0 whole entry)": "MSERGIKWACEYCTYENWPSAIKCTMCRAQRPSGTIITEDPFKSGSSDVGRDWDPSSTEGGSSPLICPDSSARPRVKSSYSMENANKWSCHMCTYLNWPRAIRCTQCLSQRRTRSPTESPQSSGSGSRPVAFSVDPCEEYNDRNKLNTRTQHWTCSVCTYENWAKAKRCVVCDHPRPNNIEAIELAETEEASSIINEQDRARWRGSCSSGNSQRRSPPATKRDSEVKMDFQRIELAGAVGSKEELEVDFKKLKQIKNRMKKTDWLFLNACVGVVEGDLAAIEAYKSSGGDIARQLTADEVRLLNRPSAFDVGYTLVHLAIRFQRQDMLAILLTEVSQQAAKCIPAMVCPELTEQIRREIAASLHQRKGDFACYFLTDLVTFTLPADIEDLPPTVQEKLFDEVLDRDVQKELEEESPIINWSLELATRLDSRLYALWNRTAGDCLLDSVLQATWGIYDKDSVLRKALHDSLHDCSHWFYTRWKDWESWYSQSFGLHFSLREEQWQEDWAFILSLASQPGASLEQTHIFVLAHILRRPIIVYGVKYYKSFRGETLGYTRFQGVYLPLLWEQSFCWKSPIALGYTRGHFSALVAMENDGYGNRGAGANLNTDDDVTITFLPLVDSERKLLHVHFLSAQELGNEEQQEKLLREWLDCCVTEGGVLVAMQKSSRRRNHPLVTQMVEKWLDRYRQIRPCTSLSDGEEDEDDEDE", "assay": "ProtoArray, G9a array SNR minus GST array SNR"}, "[19]": {"target": "DIRAS1, G9a-methylated (human) (UniProt O95057)", "assay": "ProtoArray, G9a array SNR minus GST array SNR"}, "[20]": {"target": "CSF3, G9a-methylated (human) (UniProt P09919)", "sequence (P09919 31-207 limits assumed)": "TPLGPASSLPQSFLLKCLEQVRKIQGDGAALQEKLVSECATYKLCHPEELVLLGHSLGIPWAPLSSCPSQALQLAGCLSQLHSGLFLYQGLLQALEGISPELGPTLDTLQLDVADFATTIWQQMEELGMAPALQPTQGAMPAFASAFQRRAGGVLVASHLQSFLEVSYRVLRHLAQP", "assay": "ProtoArray, G9a array SNR minus GST array SNR"}, "[21]": {"target": "CLDN15, G9a-methylated (human) (UniProt P56746)", "sequence (P56746 whole entry)": "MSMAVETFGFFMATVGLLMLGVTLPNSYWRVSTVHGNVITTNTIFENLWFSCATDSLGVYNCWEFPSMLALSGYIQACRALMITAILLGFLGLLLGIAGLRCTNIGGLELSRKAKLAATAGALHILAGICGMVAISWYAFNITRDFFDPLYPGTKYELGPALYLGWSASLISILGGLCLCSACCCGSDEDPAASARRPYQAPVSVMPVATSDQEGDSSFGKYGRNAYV", "assay": "ProtoArray, G9a array SNR minus GST array SNR"}, "[22]": {"target": "PAEP, G9a-methylated (human) (UniProt P09466)", "assay": "ProtoArray, G9a array SNR minus GST array SNR"}, "[23]": {"target": "NME1, G9a-methylated (human) (UniProt P15531)", "assay": "ProtoArray, G9a array SNR minus GST array SNR"}, "[24]": {"target": "C11orf73, G9a-methylated (human) (UniProt Q53FT3)", "assay": "ProtoArray, G9a array SNR minus GST array SNR"}, "[25]": {"target": "C10orf83, G9a-methylated (human) (UniProt Q8NDC4)", "sequence (Q8NDC4 whole entry)": "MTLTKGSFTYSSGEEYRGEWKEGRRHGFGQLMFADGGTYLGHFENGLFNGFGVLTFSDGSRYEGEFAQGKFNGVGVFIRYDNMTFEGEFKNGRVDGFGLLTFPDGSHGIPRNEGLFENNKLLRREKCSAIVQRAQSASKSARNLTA", "assay": "ProtoArray, G9a array SNR minus GST array SNR"}, "[26]": {"target": "DNTT, G9a-methylated (human) (UniProt P04053)", "sequence (P04053 whole entry)": "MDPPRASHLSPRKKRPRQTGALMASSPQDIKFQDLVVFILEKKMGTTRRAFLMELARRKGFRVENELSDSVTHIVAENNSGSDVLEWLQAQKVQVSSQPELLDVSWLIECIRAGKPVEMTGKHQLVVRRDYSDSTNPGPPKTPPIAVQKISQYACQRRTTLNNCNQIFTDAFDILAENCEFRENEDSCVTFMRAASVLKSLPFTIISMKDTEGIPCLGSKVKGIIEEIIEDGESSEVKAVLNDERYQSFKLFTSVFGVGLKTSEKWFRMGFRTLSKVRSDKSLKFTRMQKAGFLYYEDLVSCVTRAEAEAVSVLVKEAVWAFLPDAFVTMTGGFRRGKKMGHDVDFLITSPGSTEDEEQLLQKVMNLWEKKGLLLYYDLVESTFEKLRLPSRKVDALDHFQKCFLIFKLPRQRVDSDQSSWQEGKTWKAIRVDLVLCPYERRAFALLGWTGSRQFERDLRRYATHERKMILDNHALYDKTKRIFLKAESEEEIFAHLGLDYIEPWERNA", "assay": "ProtoArray, G9a array SNR minus GST array SNR"}, "[27]": {"target": "CDC2, G9a-methylated (human) (UniProt P06493)", "sequence (P06493 whole entry)": "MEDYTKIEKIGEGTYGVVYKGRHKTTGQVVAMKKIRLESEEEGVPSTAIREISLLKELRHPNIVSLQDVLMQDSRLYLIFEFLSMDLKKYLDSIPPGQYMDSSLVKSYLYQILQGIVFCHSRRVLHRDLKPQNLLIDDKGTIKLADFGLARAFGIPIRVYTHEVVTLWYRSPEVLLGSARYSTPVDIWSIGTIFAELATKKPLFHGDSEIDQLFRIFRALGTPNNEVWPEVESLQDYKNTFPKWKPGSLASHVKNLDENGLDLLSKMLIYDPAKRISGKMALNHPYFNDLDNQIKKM", "assay": "ProtoArray, G9a array SNR minus GST array SNR"}, "[28]": {"target": "C12orf62, G9a-methylated (human) (UniProt Q96I36)", "sequence (Q96I36 whole entry)": "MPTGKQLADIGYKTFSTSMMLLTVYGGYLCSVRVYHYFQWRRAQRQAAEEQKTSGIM", "assay": "ProtoArray, G9a array SNR minus GST array SNR"}, "[29]": {"target": "GPX1, G9a-methylated (human) (UniProt P07203)", "sequence (P07203 whole entry)": "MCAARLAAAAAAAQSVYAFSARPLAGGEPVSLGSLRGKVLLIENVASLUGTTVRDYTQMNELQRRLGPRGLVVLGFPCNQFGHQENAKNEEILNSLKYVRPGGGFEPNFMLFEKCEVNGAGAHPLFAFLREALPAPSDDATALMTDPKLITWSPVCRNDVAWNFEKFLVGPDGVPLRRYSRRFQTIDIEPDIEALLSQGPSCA", "assay": "ProtoArray, G9a array SNR minus GST array SNR"}, "[30]": {"target": "KCTD7, G9a-methylated (human) (UniProt Q96MP8)", "assay": "ProtoArray, G9a array SNR minus GST array SNR"}, "[31]": {"target": "GHRL, G9a-methylated (human) (UniProt Q9UBU3)", "assay": "ProtoArray, G9a array SNR minus GST array SNR"}, "[32]": {"target": "SH3YL1 (hit 65), G9a-methylated (human) (UniProt Q96HL8)", "assay": "ProtoArray, G9a array SNR minus GST array SNR"}, "[33]": {"target": "ZNF695, G9a-methylated (human) (UniProt Q8IW36)", "assay": "ProtoArray, G9a array SNR minus GST array SNR"}, "[34]": {"target": "ZBP1, G9a-methylated (human) (UniProt Q9H171)", "assay": "ProtoArray, G9a array SNR minus GST array SNR"}, "[35]": {"target": "CDKL5, G9a-methylated (human) (UniProt O76039)", "sequence (O76039 other isoform, or with tags, fused parts or gaps limits assumed)": "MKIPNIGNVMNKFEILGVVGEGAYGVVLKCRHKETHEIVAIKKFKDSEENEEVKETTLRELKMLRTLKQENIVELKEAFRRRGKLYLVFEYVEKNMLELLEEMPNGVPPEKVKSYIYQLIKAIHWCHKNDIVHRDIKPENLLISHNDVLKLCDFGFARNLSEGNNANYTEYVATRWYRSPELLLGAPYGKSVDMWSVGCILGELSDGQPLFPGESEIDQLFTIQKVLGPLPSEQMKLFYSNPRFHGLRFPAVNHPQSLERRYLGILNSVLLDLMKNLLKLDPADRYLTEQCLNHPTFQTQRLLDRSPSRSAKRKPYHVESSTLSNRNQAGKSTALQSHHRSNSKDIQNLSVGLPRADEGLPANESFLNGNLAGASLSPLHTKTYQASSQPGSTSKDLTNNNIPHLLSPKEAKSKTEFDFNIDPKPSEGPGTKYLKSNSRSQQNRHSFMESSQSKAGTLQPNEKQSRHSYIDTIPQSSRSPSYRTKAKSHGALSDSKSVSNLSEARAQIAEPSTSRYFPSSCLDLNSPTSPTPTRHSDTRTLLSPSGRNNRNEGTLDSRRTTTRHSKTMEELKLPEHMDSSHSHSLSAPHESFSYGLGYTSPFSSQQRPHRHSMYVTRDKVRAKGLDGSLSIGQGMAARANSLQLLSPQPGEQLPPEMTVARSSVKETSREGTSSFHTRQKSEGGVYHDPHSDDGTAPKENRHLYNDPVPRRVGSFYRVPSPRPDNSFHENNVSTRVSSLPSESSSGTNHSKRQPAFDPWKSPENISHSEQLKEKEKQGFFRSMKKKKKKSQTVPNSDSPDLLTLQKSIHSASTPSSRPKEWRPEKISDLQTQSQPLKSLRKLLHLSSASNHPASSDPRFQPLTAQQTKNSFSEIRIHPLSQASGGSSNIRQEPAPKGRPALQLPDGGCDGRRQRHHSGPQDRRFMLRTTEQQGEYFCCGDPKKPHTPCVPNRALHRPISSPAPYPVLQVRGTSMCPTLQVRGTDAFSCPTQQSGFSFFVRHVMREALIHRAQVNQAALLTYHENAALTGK", "assay": "ProtoArray, G9a array SNR minus GST array SNR"}, "[36]": {"target": "PHF20L1-PHD finger protein 20-like 1 (PHF20L1), transcript variant 3 (human) (UniProt A8MW92)", "assay": "ProtoArray, GST-treated control array"}, "[37]": {"target": "LPAL2-lipoprotein, Lp(a)-like 2 (LPAL2), transcript variant 1 (human) (UniProt Q16609)", "assay": "ProtoArray, GST-treated control array"}, "[38]": {"target": "NME1-non-metastatic cells 1, protein (NM23A) expressed in (NME1), transcript variant 2 (human) (UniProt P15531)", "assay": "ProtoArray, GST-treated control array"}, "[39]": {"target": "PPARG-peroxisome proliferator-activated receptor gamma (PPARG), transcript variant 4 (human) (UniProt P37231)", "assay": "ProtoArray, GST-treated control array"}, "[40]": {"target": "CALN1-calneuron 1 (CALN1), transcript variant 1 (human) (UniProt Q9BXU9)", "assay": "ProtoArray, GST-treated control array"}}}
{"substance": "3× Flag-3×MBT (designed binder)", "values": [{"measurement": "G9a-GST", "setting": "[1]", "result": 16.6}, {"measurement": "G9a-GST", "setting": "[2]", "result": 16.1}, {"measurement": "G9a-GST", "setting": "[3]", "result": 22.8}, {"measurement": "G9a-GST", "setting": "[4]", "result": 17.3}, {"measurement": "G9a-GST", "setting": "[5]", "result": 16.1}, {"measurement": "G9a-GST", "setting": "[6]", "result": 16}, {"measurement": "G9a-GST", "setting": "[7]", "result": 20.2}, {"measurement": "G9a-GST", "setting": "[8]", "result": 13.3}, {"measurement": "G9a-GST", "setting": "[9]", "result": 12.4}, {"measurement": "G9a-GST", "setting": "[10]", "result": 13.2}, {"measurement": "G9a-GST", "setting": "[11]", "result": 12.4}, {"measurement": "G9a-GST", "setting": "[12]", "result": 15.5}, {"measurement": "G9a-GST", "setting": "[13]", "result": 12.1}, {"measurement": "G9a-GST", "setting": "[14]", "result": 25.5}, {"measurement": "G9a-GST", "setting": "[15]", "result": 13.8}, {"measurement": "G9a-GST", "setting": "[16]", "result": 26.5}, {"measurement": "G9a-GST", "setting": "[17]", "result": 15.1}, {"measurement": "G9a-GST", "setting": "[18]", "result": 13.6}, {"measurement": "G9a-GST", "setting": "[19]", "result": 28.2}, {"measurement": "G9a-GST", "setting": "[20]", "result": 17.7}, {"measurement": "G9a-GST", "setting": "[21]", "result": 25.3}, {"measurement": "G9a-GST", "setting": "[22]", "result": 16.5}, {"measurement": "G9a-GST", "setting": "[23]", "result": 14.1}, {"measurement": "G9a-GST", "setting": "[24]", "result": 14.9}, {"measurement": "G9a-GST", "setting": "[25]", "result": 14.6}, {"measurement": "G9a-GST", "setting": "[26]", "result": 49.5}, {"measurement": "G9a-GST", "setting": "[27]", "result": 26}, {"measurement": "G9a-GST", "setting": "[28]", "result": 14.3}, {"measurement": "G9a-GST", "setting": "[29]", "result": 14.5}, {"measurement": "G9a-GST", "setting": "[30]", "result": 13.7}, {"measurement": "G9a-GST", "setting": "[31]", "result": 24.1}, {"measurement": "G9a-GST", "setting": "[32]", "result": 16.2}, {"measurement": "G9a-GST", "setting": "[33]", "result": 18.8}, {"measurement": "G9a-GST", "setting": "[34]", "result": 14}, {"measurement": "G9a-GST", "setting": "[35]", "result": 18.3}, {"measurement": "GST Average SNR", "setting": "[36]", "result": 1.13}, {"measurement": "GST Average SNR", "setting": "[37]", "result": 0.282}, {"measurement": "GST Average SNR", "setting": "[38]", "result": 1.06}, {"measurement": "GST Average SNR", "setting": "[39]", "result": -0.436}, {"measurement": "GST Average SNR", "setting": "[40]", "result": -0.055}]}
